Consider nine molecules from US20260207798A1, “CYCLIC PEPTIDES AS PET IMAGING AGENTS OF GRANZYME B” (priority 2022, published 2026).

Bridge positions count the residues as written; N and C are the ends. Square brackets hold non-standard residues; d marks the D form. NOTA‑1 = 1,4,7-triazacyclononane-N,N',N''-triacetic acid phenyl thiourea; Pro(trans-4-Ph) = O=C(O)[C@@H]1C[C@@H](c2ccccc2)CN1; Trp(7-Me) = Cc1cccc2c(C[C@H](N)C(=O)O)c[nH]c12; Pro(cis-4-F) = O=C(O)[C@@H]1C[C@H](F)CN1; Phe(4-F) = N[C@@H](Cc1ccc(F)cc1)C(=O)O; Phe(4-Me) = Cc1ccc(C[C@H](N)C(=O)O)cc1; Pro(4S-Me) = C[C@@H]1CN[C@H](C(=O)O)C1; Pro(4R-Me) = C[C@H]1CN[C@H](C(=O)O)C1

Assay [1] has as its target T1, Human Granzyme B (Homo sapiens, UniProt P10144). As to the kind of experiment: Binding of scrambled control peptide to human granzyme-B (method not given). The arrangement: Ten million human peripheral blood mononuclear cell (PBMC) were engrafted in immunocompromised NOG (NOD/Shi-scid/IL-2Rγ) mice; endogenous in cells; host or cells: human PBMC (donor-derived) engrafted in NOG mice.

Assay [2] concerns the target T1, Human Granzyme B. It counts as in vivo. The arrangement: Ten million human peripheral blood mononuclear cell (PBMC) were engrafted in immunocompromised NOG (NOD/Shi-scid/IL-2Rγ) mice; endogenous in cells; host or cells: human PBMC (donor-derived) engrafted in NOG mice. Conditions: 18F-labeled peptides, i.v., mice, static PET/CT 1 h after injection. Here is the method:
Diseased model: Graft versus host disease (GvHD) model was selected to evaluate radiolabeled granzyme-B peptides due to presence of human granzyme-B after onset of disease. Ten million human peripheral blood mononuclear cell (PBMC) were engrafted in immunocompromised NOG (NOD/Shi-scid/IL-2Rγ) mice. Body weight was monitored routinely, once the mice started to lose weight (indication of onset of disease), PET/CT scans were performed. To determine target specificity, NOG mice without human PBMC were used as control. […] Mice were intravenously injected with approximately 150 uCi (35 Ci/mmol) of ^18F-labeled peptides and 45-minute whole body static PET/CT scans were performed 1 h after injection. Attenuation correction was performed using low-dose CT scan.

The target in assay [3] is T2, human Granzyme B (human, UniProt P10144 21-247).
T2 construct: Captured on a Series S Streptavidin chip for SPR; also called hGranzyme B; GzmB
As to the kind of experiment: SPR, Biacore 8k+, hGranzyme B captured on SA chip, single cycle kinetics, 1:1 model; Compound 66a, observed m/z 912.5. Here is the method: (§1) The kinetics of test peptide binding to human Granzyme B (hGranzyme B) was determined by SPR. All experiments were performed at 25° C. using the Biacore 8k+ instrument (Cytiva, Marlborough, MA). The Biacore 8k+ Insight Evaluation Software Version 3.0 was used to fit the data with a 1:1 binding model to determine the association rate constant kₐ (M⁻¹s⁻¹, where “M” ~equals molar and “s” ~equals seconds) and the dissociation rate constant kd (s⁻¹). These rate constants were used to calculate the equilibrium dissociation constant. KD (M)=kd/kₐ.
(§2) To measure the binding kinetics of peptides of interest, surfaces were prepared by a capture method to a Series S Streptavidin (SA) chip using a 1×HBS-EP+ running buffer (Cytiva). hGranzyme B was diluted to 10 μg/mL in IX HBS-EP+ and flowed over spot 2 of each flow cell on the chip at a flow rate of 10 ul/min for 20 s to achieve a level of capture of ~1100 RU. […] Binding kinetics were measured using single cycle kinetics at 25° C. by injecting 5 concentrations with 3-fold serial dilutions of test peptides from 0.01 μM to 1 μM. […]
(§3) Peptide dilution series included 2 zero concentration points (no compound) which were averaged and subtracted from the peptide concentration injection as DMSO control responses. […] Corrected response data were analyzed using the Biacore 8k+ Evaluation Software Version 3.0 according to the manufacturer. […]
(SPR reads the build-up and loss of mass on a sensor chip optically.)

Assay [4] addresses T2, human Granzyme B. As to the kind of experiment: SPR, Biacore 8k+, hGranzyme B captured on SA chip, single cycle kinetics, 1:1 model; Compound 83a, observed m/z 913.2. The protocol: as §1, §2, §3
In assay [5] the target is T2, human Granzyme B. The assay is described as follows: SPR, Biacore 8k+, hGranzyme B captured on SA chip, single cycle kinetics, 1:1 model; Compound 42a, observed m/z 944.0. Here is the method:
as §1, §2, §3

Assay [6] deals with T2, human Granzyme B. The assay is described as follows: SPR, Biacore 8k+, hGranzyme B captured on SA chip, single cycle kinetics, 1:1 model; Compound 41a, observed m/z 912.9. The protocol: as §1, §2, §3
Assay [7] concerns the target T2, human Granzyme B. The assay is described as follows: SPR, Biacore 8k+, hGranzyme B captured on SA chip, single cycle kinetics, 1:1 model; Compound 40a, observed m/z 915.0. Here is the method: as §1, §2, §3
For assay [8], the target named is T2, human Granzyme B. As to the kind of experiment: SPR, Biacore 8k+, hGranzyme B captured on SA chip, single cycle kinetics, 1:1 model; Compound 62a, observed m/z 914.7. Here is the method:
as §1, §2, §3

For assay [9], the target named is T2, human Granzyme B. The assay is described as follows: SPR, Biacore 8k+, hGranzyme B captured on SA chip, single cycle kinetics, 1:1 model; Compound 86a, observed m/z 912.9. Here is the method:
as §1, §2, §3

Assay [10] deals with T2, human Granzyme B. As to the kind of experiment: SPR, Biacore 8k+, hGranzyme B captured on SA chip, single cycle kinetics, 1:1 model; Compound 69a, observed m/z 912.6. Here is the method: as §1, §2, §3

T2 sequence (P10144 21-247 limits assumed): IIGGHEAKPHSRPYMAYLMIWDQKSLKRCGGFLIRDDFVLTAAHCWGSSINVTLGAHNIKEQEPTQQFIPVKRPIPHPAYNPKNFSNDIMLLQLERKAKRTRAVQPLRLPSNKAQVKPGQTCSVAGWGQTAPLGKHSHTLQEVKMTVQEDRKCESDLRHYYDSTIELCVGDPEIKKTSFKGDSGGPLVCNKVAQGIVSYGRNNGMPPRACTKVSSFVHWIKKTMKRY
T1 sequence (P10144 21-247): as the sequence (P10144 21-247 limits assumed) above

As to “*F.Q.W.Q.A.S.N.E.D.D.T.P.F.*C.G.G.K(NOTA-1)·NH2) ({CH2CO}-FQWQASNEDDTPFCGGK(NOTA‑1)-NH2; thioether N-14) [scrambled peptide, 18F-labeled scrambled peptide used as negative control, reference compound]”, in [1], the “binding to human granzyme-B” value is recorded as “minimal/no binding”. Moreover, the “uptake (SUVmean) in lung, liver and bone, GvHD model versus NOG control” value in assay [2] is “No significant difference was observed between lung, liver, and bone in GvHD model and NOG control”. One may read the Kd as the equilibrium constant for the complex coming apart. Read a high Kd as a looser complex. Molecule {CH2CO}-FNFEDQSPDT[Trp(7-Me)]QPCG-NH2 (thioether N-14) [Compound 66a] displayed a dissociation constant Kd in assay [3] of 11.1 nM. {CH2CO}-FNFEDQS[Pro(4R-Me)]DTWQPCG-NH2 (thioether N-14) [Compound 83a] yielded a dissociation constant Kd in assay [4] of 48 nM. As to {CH2CO}-FNFEDQSPDTWQ[Pro(trans-4-Ph)]CG-NH2 (thioether N-14) [Compound 42a], binding in assay [5] was characterised by a dissociation constant (Kd) of 2.6 nM. In assay [6], {CH2CO}-FNFEDQSPDTWQ[Pro(4S-Me)]CG-NH2 (thioether N-14) [Compound 41a] yielded an equilibrium dissociation constant (Kd) of 2.5 nM. The molecule {CH2CO}-FN[Phe(4-F)]EDQSPDTWQPCG-NH2 (thioether N-14) [Compound 40a] returned a Kd in assay [7] of 1.8 nM.

For the molecule {CH2CO}-FNFEDQS[Pro(cis-4-F)]DTWQPCG-NH2 (thioether N-14) [Compound 62a], in [8], binding was put at a Kd of 6.7 nM.

For {CH2CO}-FN[Phe(4-Me)]EDQSPDTWQPCG-NH2 (thioether N-14) [Compound 86a], in assay [9], the Kd turned out to be 579 nM.

In the case of {CH2CO}-FNFEDQS[Pro(4S-Me)]DTWQPCG-NH2 (thioether N-14) [Compound 69a], in assay [10], the affinity, expressed as Kd, was 17.2 nM. This counts as double-digit nanomolar.
